Patent US20240294635A1 (CHIA TAI TIANQING PHARMACEUTICAL GROUP, published 2024)

Columns and labels:
CD47 on HL60 cells = CD47 on HL60 cells (UniProt Q08722 19-323, limits assumed); assay: cell-based or functional assay
[1] = target: T1, cynomolgus/rhesus macaque CD47 protein, His Tag (ACRObiosystems, Cat. No. CD7-C52H1) (cynomolgus monkey (cynomolgus/rhesus …, UniProt A0A2K5X523 19-141)); assay: Biacore SPR, 25 C, antibody captured on CM5 chip
T1 construct: bought reagent; also called Cynomolgus monkey CD47 protein

[2] = target: T2, CD47 on the red cell surface (Homo sapiens (Human), UniProt Q08722 19-323); assay: flow cytometry on fixed red cells, antibody 1 µg/mL
Procedure: (§1) Anticoagulated blood was collected and well mixed with an equal amount of normal saline. The mixture was centrifuged at 2000 rpm/min for 5 min, and the supernatant was removed. […] In the first two washings, the mixture was centrifuged at 2000 rpm/min for 5 min, and in the last washing, the mixture was centrifuged at 2000 rpm/min for 10 min, and the supernatant was removed.

[3] = target: T2, CD47 on the red cell surface; assay: flow cytometry on fixed red cells, antibody 10 µg/mL
Procedure: as §1

CD47 on Jurkat cells = target: T3, CD47 on Jurkat cells (UniProt Q08722 19-323, limits assumed); assay: flow cytometry on Jurkat cells, competition with Human-SIRPα-mFc
T3 construct: whole, on cells; Jurkat is a human T cell line
Procedure: The plate was incubated at room temperature for 1 h. After the plate was washed twice with PBS buffer, 100 μL of anti-CD47 chimeric antibodies (Table 7) was added to each well. 4-fold dilution was performed with PBS buffer from a starting concentration of 20 μg/mL, with 8 gradients obtained. The plate was incubated at room temperature for 1-2 h. […] The plate was incubated at room temperature for 1 h and washed 3 times with PBS buffer.

[4] = target: T4, human CD47 protein, His Tag (ACRObiosystems, Cat. No. CD7-H5227) (human, UniProt Q08722 19-139); assay: Biacore SPR, 25 C, antibody captured on CM5 chip; Biacore at 25 C; antibody captured on the chip, soluble CD47-His as analyte
T4 construct: bought reagent; also called CD47-His; hCD47-His Tag; not shown: His tag

[5] = target: T4, human CD47 protein, His Tag …; assay: ELISA, CD47-His coated, competition with Human-SIRPα-mFc; Blocking ELISA; CD47-His coated on plate, SIRPα-mFc bound first, antibody from 20 µg/mL, mouse Fc detected
Procedure: The plate was let stand at 2-8° C. overnight. The wells were aspirated to remove the coating buffer and blocked with 100 μL/well of a blocking solution (PBS with 1% (w/v) bovine serum albumin (BSA, Sigma, Cat. No. B2064-100G)) by incubation at 37° C. for 1 h. The 96-well plate was washed with a washing buffer (PBS with 0.01% (w/v) Tween 20 (Sigma, Cat. No. P9416-100ML)). […] After the 96-well plate was washed with PBS washing buffer, anti-CD47 chimeric antibodies or anti-CD47 humanized antibodies (see Table 8 for chimeric antibodies, and see Table 9 for humanized antibodies) were added. 4-fold dilution was performed with PBS buffer from a starting concentration of 20 μg/mL, with 8 gradients obtained. The plate was incubated at room temperature for 1.5 h. […] After the 96-well plate was washed with PBS buffer, 100 μL/well of a substrate solution TMB (TIANGEN, Cat. No. PA107-01) was added, and the plate was incubated at room temperature for color development for 10 min. 100 μL/well of 1 M H₂SO₄ was added to stop the reaction. Colorimetric signals were generated and read at 450 nm using a multifunctional microplate reader (manufacturer: PerkinElmer; model: EnVision). Data were analyzed using GraphPad Prism5, and EC₅₀ was calculated.

T1 sequence (A0A2K5X523 entry or part of it limits assumed): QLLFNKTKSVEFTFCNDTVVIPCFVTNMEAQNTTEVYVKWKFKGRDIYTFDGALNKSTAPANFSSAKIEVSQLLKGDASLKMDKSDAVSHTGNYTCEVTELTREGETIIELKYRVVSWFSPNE

rate of phagocytosis, antibody 1 µg/mL (CD47 on HL60 cells): 7.1%
rate of phagocytosis, antibody 10 µg/mL (CD47 on HL60 cells): 3.5%
Kd [1]: 1.25 nM
MFI [2]: 952 MFI
MFI [3]: 5300 MFI
IC50 (CD47 on Jurkat cells): 27 µg/mL
Kd [4]: 0.35 nM
IC50 [5]: 0.00468 µg/mL
B1: Xi2H8 (antibody, human IgG4 S228P, kappa, V domains shown)
VH: QVQLKESGPGLVAPSQSLSITCTVSGFSLTNYGVHWVRQPPGKGLEWLGIIWAGGSTNYNSALMSRLSISKDNSKSQVFLKMNSLQTDDTAMYYCARDDYASMDYWGQGTSVTVSS
VL: DAFMTQTPLSLPVSLGDQASISCRSSQSLVHSNGNTYLHWYLQKPGQSPKLLIYKVSNRFSGVPDRFSGSGSGTDFTLKISRVEAEDLGVYFCSQSTHVPYTLGGGTKLEIKR
notes: mouse variable regions on human IgG4 (EU S228P) and human kappa constant regions; also called chimeric 2H8 antibody
